# Test results taken from patent publication US20200291126A1 (EUTILEX, published 2020).
# T1: V-Set And Immunoglobulin Domain Containing 4 (VSIG4) (human, UniProt Q9Y279 20-283, limits assumed)
# T1 construct: also called CRIg; Z39Ig
# T1 sequence (looked up): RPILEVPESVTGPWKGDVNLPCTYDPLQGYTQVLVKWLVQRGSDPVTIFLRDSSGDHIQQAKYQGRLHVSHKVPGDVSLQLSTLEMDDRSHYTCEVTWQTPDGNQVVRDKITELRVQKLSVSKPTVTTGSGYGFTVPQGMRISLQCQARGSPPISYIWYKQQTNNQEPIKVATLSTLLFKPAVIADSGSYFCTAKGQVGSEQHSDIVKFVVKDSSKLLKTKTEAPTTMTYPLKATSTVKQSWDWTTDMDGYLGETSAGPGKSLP
# What was measured:
# [1] = biological target: T1, V-Set And Immunoglobulin Domain …; test: kinetic affinity measurement; method not stated at the table (SPR named for EU103.2 in FIG. 4B)
# [2] = biological target: T1, V-Set And Immunoglobulin Domain …; test: kinetic affinity measurement; method not stated
Kd [1] [nM],koff [1] [s⁻¹],kon [1] [M⁻¹ s⁻¹],Kd [2] [nM],koff [2] [s⁻¹],kon [2] [M⁻¹ s⁻¹],Binder
71.6,0.0131,183000,–,–,–,"EU103.2 antibody (antibody, V domains shown, also called humanized anti-VSIG4 antibody generated from mouse anti-VSIG4 antibody mu6H8) VH: QVQLQESGPGLVKPSQTLSLTCSFSGISLTTSGMGVGWIRQPPGKGLEWLADIFWDDNKYYNPSLKSRVTISVDTSKNQFSLKLSSVTAADTAVYYCVRVYYKNDGYFDVWGQGTLVTVSS VL: EIVMTQSPATLSVSPGERATLSCRASKSVTTSGYSFMHWYQQKPGQAPRLLIYLASNLEPGIPARFSGSGSGTEFTLTISSLQSEDFAVYYCQHSRELPYTFGQGTKLEIK"
–,–,–,7.64,0.00308,404000,"A2.3 antibody (EU103_T01.02S) (antibody, V domains shown, Generated from A2) VH: QVTLVESGPTLVKPGQTLTLTCTFSGISLTTSGMGVGWIRQPPGKALEWLADIFWDDNKYYNPSLKGRLTITKDTSKNQVYLTMTNMDPVDTATYYCVRVYYKNDGYFDVWGKGTTVTVSS VL: DIVLTQSPLSLPVTLGQPASISCRASKSVTTSGYSFMHWYQQRPGQSPRLLIYLASNLEPGVPDRFSGSGSGTDFTLKIFRVEAEDVGVYYCQQSGELPYTFGQGTKLEIK"
–,–,–,8.23,0.00296,360000,"A2 antibody (EU103_T01.02) (antibody, V domains shown) VH: QVTLKESGPTLVKPTQTLTLTCTFSGISLTTSGMGVGWIRQPPGKALEWLADIFWDDNKYYNPSLKSRLTITKDTSKNQVVLTMTNMDPVDTATYYCVRVYYKNDGYFDVWGKGTTVTVSS VL: DIVLTQSPLSLPVTLGQPASISCRASKSVTTSGYSFMHWYQQRPGQSPRLLIYLASNLEPGVPDRFSGSGSGTDFTLKIFRVEAEDVGVYYCQQSGELPYTFGQGTKLEIK"

# The remaining lines, values behind:
Binder,Kd [1] [nM],koff [1] [s⁻¹],kon [1] [M⁻¹ s⁻¹],Kd [2] [nM],koff [2] [s⁻¹],kon [2] [M⁻¹ s⁻¹]
"A1 antibody (EU103_T01.01) (antibody, V domains shown) VH: QVTLKESGPTLVKPTQTLTLTCTFSGISLTTSGMGVGWIRQPPGKALEWLADIFWDDNKYYNPSLKSRLTITKDTSKNQVVLTMTNMDPVDTATYYCVRVYYKNDGYFDVWGKGTTVTVSS VL: DIVLTQSPLSLPVTLGQPASISCRASKSVTTSGYSFMHWYQQRPGQSPRLLIYLASNLEPGVPDRFSGSGSGTDFTLKISRVEAEDVGVYYCQQSGELPYTFGQGTKLEIK",–,–,–,8.69,0.00328,378000
"A1.3 antibody (EU103_T01.01S) (antibody, V domains shown, Generated from A1) VH: QVTLVESGPTLVKPGQTLTLTCTFSGISLTTSGMGVGWIRQPPGKALEWLADIFWDDNKYYNPSLKGRLTITKDTSKNQVYLTMTNMDPVDTATYYCVRVYYKNDGYFDVWGKGTTVTVSS VL: DIVLTQSPLSLPVTLGQPASISCRASKSVTTSGYSFMHWYQQRPGQSPRLLIYLASNLEPGVPDRFSGSGSGTDFTLKISRVEAEDVGVYYCQQSGELPYTFGQGTKLEIK",–,–,–,7.95,0.0032,402000
